Seven molecules from US20250019427A1 (BYOMASS, published 2025) can be followed below.

A word on the Kd: it is the free concentration of one partner at which half of the binding sites on the other are occupied at equilibrium, for simple one-to-one binding. Higher therefore signals weaker binding.

One test concerns the target T1, GDF15 (Homo sapiens (Human), UniProt Q99988 30-308).
T1 sequence: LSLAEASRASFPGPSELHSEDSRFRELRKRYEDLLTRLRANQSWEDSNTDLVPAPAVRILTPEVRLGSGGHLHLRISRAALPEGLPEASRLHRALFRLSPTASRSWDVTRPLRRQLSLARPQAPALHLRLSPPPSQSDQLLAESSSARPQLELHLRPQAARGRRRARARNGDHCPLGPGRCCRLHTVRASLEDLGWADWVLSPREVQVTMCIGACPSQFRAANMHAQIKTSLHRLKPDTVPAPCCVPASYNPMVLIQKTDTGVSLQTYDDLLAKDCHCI
Kind of test: cell-based or functional assay.

A further test addresses T2, Cyno GDF15 Fc (cyno, UniProt G7PWZ3 193-308).
T2 construct: also called cyno GDF15-Fc fusion
T2 sequence: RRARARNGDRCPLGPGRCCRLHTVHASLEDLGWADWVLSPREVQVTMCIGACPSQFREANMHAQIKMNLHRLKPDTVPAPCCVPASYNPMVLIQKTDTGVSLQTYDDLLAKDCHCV
Kind of test: Octet BLI, IgG on AHC tip, avid. The protocol: (§1) Briefly, ForteBio affinity measurements were performed by loading IgGs on-line onto AHC sensors. Sensors were equilibrated off-line in assay buffer for 30 min and then monitored on-line for 60 seconds for baseline establishment. Sensors with loaded IgGs were exposed to 100 nM antigen for 3 minutes, and afterwards were transferred to assay buffer for 3 min for off-rate measurement. All kinetics were analyzed using the 1:1 binding model.

A further test has as its target T3, Mouse GDF15 Fc (mouse, UniProt Q9Z0J7 189-303, limits assumed).
T3 construct: also called mouse GDF15Fc fusion
T3 sequence (looked up): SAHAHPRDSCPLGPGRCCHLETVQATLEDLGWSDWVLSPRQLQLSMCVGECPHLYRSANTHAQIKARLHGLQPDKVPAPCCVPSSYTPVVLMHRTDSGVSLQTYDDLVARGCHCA
Kind of test: Octet BLI, IgG on AHC tip, avid. The procedure: as §1
In general terms: Biolayer interferometry detects binding as a change in optical thickness at a sensor tip.

A further test addresses T4, Rat GDF-15 Fc (rat, UniProt Q9Z0J6 189-303, limits assumed).
T4 sequence (looked up): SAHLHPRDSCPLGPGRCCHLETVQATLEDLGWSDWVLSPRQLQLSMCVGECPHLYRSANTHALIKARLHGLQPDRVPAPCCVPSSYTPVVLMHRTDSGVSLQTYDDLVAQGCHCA
The test is described as follows: Octet BLI, IgG on AHC tip, avid. The procedure:
as §1

The next test has as its target T5, GDNF (UniProt P39905 78-211).
T5 sequence (looked up): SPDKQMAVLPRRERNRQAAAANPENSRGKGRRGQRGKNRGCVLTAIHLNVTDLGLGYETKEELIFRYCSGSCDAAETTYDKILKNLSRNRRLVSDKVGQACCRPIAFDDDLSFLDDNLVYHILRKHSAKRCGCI
Kind of test: Octet BLI, IgG on tip, avid.

Test [1] addresses T6, Human BMP9 (human, UniProt Q9UK05 320-429).
T6 sequence (looked up): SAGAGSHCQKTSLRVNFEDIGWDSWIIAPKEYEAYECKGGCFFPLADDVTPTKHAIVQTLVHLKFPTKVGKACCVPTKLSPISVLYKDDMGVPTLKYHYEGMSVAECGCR
The test is described as follows: Octet BLI, IgG on tip, avid.

In another test the target is T7, GDF11 (UniProt O95390 299-407).
T7 construct: Also the GDF-11 ligand of the ActRIIB/SMAD reporter assay
Kind of test: Octet BLI, IgG on tip, avid.

The next test concerns the target T8, Human Activin A Fc (human, UniProt P08476 311-426).
T8 sequence (looked up): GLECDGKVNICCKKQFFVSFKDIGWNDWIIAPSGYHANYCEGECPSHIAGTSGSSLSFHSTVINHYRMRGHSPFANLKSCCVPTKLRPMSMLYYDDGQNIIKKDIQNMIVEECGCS
The test is described as follows: Octet BLI, IgG on tip, avid.

Another test deals with T9, Human BMP10 (human, UniProt O95393 317-424).
T9 sequence (looked up): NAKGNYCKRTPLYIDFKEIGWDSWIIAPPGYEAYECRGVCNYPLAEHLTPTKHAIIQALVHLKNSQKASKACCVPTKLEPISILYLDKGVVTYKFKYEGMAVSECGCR
Kind of test: Octet BLI, IgG on tip, avid.

The target of another test is T10, Human Activin B (human, UniProt P09529 293-407).
T10 construct: Also used for the Activin B ligand of the ActRIIB/SMAD reporter assay, where the species is not restated
T10 sequence (looked up): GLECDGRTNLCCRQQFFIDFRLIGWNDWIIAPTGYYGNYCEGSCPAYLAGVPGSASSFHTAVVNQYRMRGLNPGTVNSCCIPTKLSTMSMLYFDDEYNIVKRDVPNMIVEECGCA
The test is described as follows: Octet BLI, IgG on tip, avid.

The target in another test is T11, GDF10 (UniProt P55107 369-478).
T11 sequence (looked up): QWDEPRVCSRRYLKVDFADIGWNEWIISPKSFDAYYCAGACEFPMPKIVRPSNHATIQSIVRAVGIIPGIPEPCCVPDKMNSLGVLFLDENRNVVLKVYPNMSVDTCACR
Kind of test: Octet BLI, IgG on tip, avid.

For a further test, the target named is GDF8 (UniProt O14793 267-375). Kind of test: Octet BLI, IgG on tip, avid.
In test [2] the target is T6, Human BMP9. Kind of test: Octet BLI, IgG on tip, avid; P.F. = binder with poor fit.

T7 sequence (O95390 299-407 limits assumed): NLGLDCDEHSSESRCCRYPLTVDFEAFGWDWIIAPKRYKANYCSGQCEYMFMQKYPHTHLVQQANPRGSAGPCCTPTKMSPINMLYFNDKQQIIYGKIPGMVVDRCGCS

B1: Clone E IgG (antibody, V domains shown)
VH: QVQLVQSGAEVKKPGASVKVSCKASGYTFTSYGINWVRQAPGQGLEWMGWITAYSGDTNYAQKLQGRVTMTTDTSTSTAYMELRSLRSDDTAVYYCARGPGQYADVDVWGQGTMVTVSS
VL: DIQMTQSPSSVSASVGDRVTITCRASQGISSWLAWYQQKPGKAPKLLIYAASSLQSGVPSRFSGSGSGTDFTLTISSLQPEDFATYYCQQANSFPITFGGGTKVEIKR
notes: IgG format
In the case of B1, in the test with GDF15, the “GDF15 - GFRAL RET pERK IC50 (pM)” value stood at 35 pM. Also, the “GDF15 - GFRAL-RET Luciferase IC50 (pM)” value with GDF15 was found to be 190 pM. The Kd with Cyno GDF15 Fc amounted to 178 pM; with Mouse GDF15 Fc it was 194 pM; with Rat GDF-15 Fc it was 451 pM. The binding result with GDNF, with Human BMP9 [1], in the test with GDF11, with Human Activin A Fc, with Human BMP10 and with Human Activin B was “no binding (tested: 100 nM)” each time. Besides, the binding result with GDF10 and with GDF8 was “no binding (tested: 100 nM)” each time.

B2: Clone O IgG (antibody, V domains shown)
VH: QVQLVQSGAEVKKPGATVKVSCKASGYTFDSLGMSWVRQAPGQGLEWMGYISTYSGDTVYAQKLQGRVTMTTDTSTSTAYMELRSLRSDDTAVYYCARESGQQVSALDPWGQGTLVTVSS
VL: DIQMTQSPSSVSASVGDRVTITCRASQGISRWLAWYQQKPGKAPKLLIYAASSLQSGVPSRFSGSGSGTDFTLTISSLQPEDFATYYCQQGASFPLTFGGGTKVEIKR
notes: IgG format
For B2, the “GDF15 - GFRAL-RET Luciferase IC50 (pM)” value with GDF15 is 150 pM. Also, the binding result with GDNF, in the test with Human BMP9 [1], with GDF11, in the test with Human Activin A Fc, with Human BMP10 and with Human Activin B was “no binding (tested: 100 nM)” throughout. In addition, the binding result with GDF8 is “no binding (tested: 100 nM)”. In the test with GDF10, binding was put at a Kd of 26700 pM.

B3: Clone L IgG (antibody, V domains shown)
VH: QVQLVQSGAEVKKPGASVKVSCKASGYTFASYDIIWVRQAPGQGLEWMGWISALSGDTVYAQKLQGRVTMTTDTSTSTAYMELRSLRSDDTAVYYCARTRHDTSGIRFDYWGQGTLVTVSS
VL: DIQMTQSPSSVSASVGDRVTITCRASQGIDSWLAWYQQKPGKAPKLLIYAASSLQSGVPSRFSGSGSGTDFTLTISSLQPEDFATYYCQQVHSFPITFGGGTKVEIKR
notes: IgG format
As for B3, in the test with GDF15, the “GDF15 - GFRAL RET pERK IC50 (pM)” value worked out at 13.5 pM. Moreover, the “GDF15 - GFRAL-RET Luciferase IC50 (pM)” value with GDF15 was found to be 274 pM. In the test with GDNF, this molecule displayed a Kd of 229000 pM. In addition, the binding result with Human BMP9 [1], with GDF11, with Human Activin A Fc, in the test with Human BMP10, with Human Activin B and with GDF10 was “no binding (tested: 100 nM)” in each case. Also, in the test with GDF8, the binding result was “no binding (tested: 100 nM)”.

B4: Clone I IgG (antibody, V domains shown)
VH: QVQLVQSGAEVKKPGASVKVSCKASGYTFTDEGINWVRQAPGQGLEWMGWITAYSGDTVYAQKLQGRVTMTTDTSTSTAYMELRSLRSDDTAVYYCARGPGQYADVDVWGQGTMVTVSS
VL: DIQMTQSPSSVSASVGDRVTITCRASQGISSWLAWYQQKPGKAPKLLIYAASSLQSGVPSRFSGSGSGTDFTLTISSLQPEDFATYYCQQANSFPITFGGGTKVEIKR
notes: IgG format
As to B4, the “GDF15 - GFRAL RET pERK IC50 (pM)” value with GDF15 is 34.5 pM. Further, the “GDF15 - GFRAL-RET Luciferase IC50 (pM)” value with GDF15 was determined as 79.3 pM. Moreover, the Kd with Cyno GDF15 Fc came to 3040 pM; in the test with Mouse GDF15 Fc it was 152 pM; with Rat GDF-15 Fc, 1180 pM. For the same molecule, the binding result with Human BMP9 [1], with GDF11, in the test with Human Activin A Fc, with Human BMP10, in the test with Human Activin B and in the test with GDF10 was “no binding (tested: 100 nM)” in each case. In addition, the binding result with GDF8 is “no binding (tested: 100 nM)”.

B5: Clone M IgG (antibody, V domains shown)
VH: QVQLVQSGAEVKKPGASVKVSCKASGYTFDSYGINWVRQAPGQGLEWMGWISAYSGDTAYAQELQGRVTMTTDTSTSTAYMELRSLRSDDTAVYYCVRDTQYGGSPYWGQGTLVTVSS
VL: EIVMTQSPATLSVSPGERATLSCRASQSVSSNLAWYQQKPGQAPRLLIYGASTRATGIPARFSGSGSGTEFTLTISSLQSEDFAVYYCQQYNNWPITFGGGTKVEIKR
notes: IgG format
For B5, in the test with GDF15, the “GDF15 - GFRAL RET pERK IC50 (pM)” value was 88.7 pM. The affinity with GDNF, expressed as Kd, was 31400 pM. Moreover, the binding result in the test with Human BMP9 [1], with GDF11, with Human Activin A Fc, in the test with Human BMP10, in the test with Human Activin B and with GDF10 was “no binding (tested: 100 nM)” each time. In addition, the binding result with GDF8 is recorded as “no binding (tested: 100 nM)”.

B6: Clone N IgG (antibody, V domains shown)
VH: QVQLVQSGAEVKKPGASVKVSCKASGYTFTDYGIFWVRQAPGQGLEWMGWITAYSGDTHYAQKLQGRVTMTTDTSTSTAYMELRSLRSDDTAVYYCVRDTQYGGSPYWGQGTLVTVSS
VL: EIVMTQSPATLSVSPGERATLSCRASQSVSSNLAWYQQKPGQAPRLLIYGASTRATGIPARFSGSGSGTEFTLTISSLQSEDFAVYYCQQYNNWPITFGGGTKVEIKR
notes: IgG format
Regarding B6, in the test with GDF15, the “GDF15 - GFRAL RET pERK IC50 (pM)” value turned out to be 99.7 pM. Also, the Kd with Cyno GDF15 Fc was found to be 219 pM; with Mouse GDF15 Fc, 219 pM; with Rat GDF-15 Fc, 358 pM; with GDNF it was 2560 pM. Besides, the binding result with Human BMP9 [1], with GDF11, with Human Activin A Fc, with Human BMP10, with Human Activin B and with GDF10 was “no binding (tested: 100 nM)” throughout. In the test with GDF8, the binding result is given as “no binding (tested: 100 nM)”.

B7: Clone R IgG (antibody, V domains shown)
VH: QVQLQESGPGLVKPSQTLSLTCTVSGGSISSGGIYWTWIRQHPGKGLEWIGAIAYSGSTYYNPSLESRVTISVDTSKNQFSLKLSSVTAADTAVYYCARGIEYQHFDYWGQGTLVTVSS
VL: not shown
notes: IgG format
As to B7, the binding result with GDNF is given as “no binding (tested: 100 nM)”; with GDF11 it was “no binding (tested: 100 nM)”; with GDF10 it was “no binding (tested: 100 nM)”; in the test with GDF8, “no binding (tested: 100 nM)”; with Human BMP9 [2], “binds”. The same molecule returned a Kd in the test with Human Activin B of 188000 pM.
